The target in test [1] is T1, human ICOS-L ectodomain (residues 19-248), His-tagged, immobilised on Ni-NTA biosensors (human, UniProt O75144).
T1 construct: also called ICOS ligand; CD275; source: HEK 293F, transiently transfected, purified from the supernatant (HisTrap Ni-NTA); not shown: His6, C-terminal, kept
In words: BLI; His-tagged ICOS or ICOS-L on Ni-NTA biosensors, Fabs as analytes (prezalumab 1:2 serial dilutions from 31 nM); PBS pH 7.4, 0.01% BSA, 0.002% Tween; 1:1 fit. To be noted: both partners purified. In general terms: In BLI a coated tip is dipped into the sample, and binding shifts an interference pattern.

For test [2], the target named is T2, human ICOS-L ectodomain (residues 19-248), His-tagged, immobilised on Ni-NTA biosensors (human, UniProt O75144 19-248).
T2 chain: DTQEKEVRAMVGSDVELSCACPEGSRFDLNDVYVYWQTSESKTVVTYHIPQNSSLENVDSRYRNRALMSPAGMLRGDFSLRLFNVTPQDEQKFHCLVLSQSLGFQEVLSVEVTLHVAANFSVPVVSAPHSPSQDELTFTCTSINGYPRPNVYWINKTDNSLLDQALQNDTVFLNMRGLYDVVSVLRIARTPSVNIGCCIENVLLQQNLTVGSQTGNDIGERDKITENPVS
In words: BLI.

Test [3] deals with T2, human ICOS-L ectodomain (residues …). In words: BLI.
Test [4] concerns the target T3, human ICOS-L ectodomain (residues 19-248), crystallised in complexes (human, UniProt O75144).
T3 construct: not shown: Venus (monomeric variant), C-terminal, cleaved; His6, C-terminal, cleaved
In words: crystal structure; ICOS-L/prezalumab Fab/VNAR complex, co-expressed and co-purified, 3.15 A; 0.2 M di-ammonium tartrate, 20% PEG 3350. The settings on record: both partners purified.

The target in test [5] is T4, human ICOS-L ectodomain (residues 19-248), untagged monomer (human, UniProt O75144 19-248).
T4 construct: Residues of the TEV site probably remain at the C-terminus after cleavage; also called ICOS-L ectodomain monomer; CD275; source: HEK 293F, transiently transfected, purified (HisTrap Ni-NTA, TEV digestion, second Ni-NTA, Superdex 200); not shown: Venus (monomeric variant), C-terminal, cleaved; His6, C-terminal, cleaved
T4 sequence (looked up): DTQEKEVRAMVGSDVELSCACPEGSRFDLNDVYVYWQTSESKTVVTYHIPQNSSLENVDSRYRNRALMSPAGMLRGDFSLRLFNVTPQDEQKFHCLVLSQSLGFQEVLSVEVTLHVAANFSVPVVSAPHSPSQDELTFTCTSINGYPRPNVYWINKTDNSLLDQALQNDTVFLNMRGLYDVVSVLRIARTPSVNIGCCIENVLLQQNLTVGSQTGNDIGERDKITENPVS
Put plainly: BLI; His-tagged ICOS on Ni-NTA biosensors (0.8 nm), untagged ICOS-L as analyte, 1:2 serial dilutions from 500 nM; PBS pH 7.4, 0.01% BSA, 0.002% Tween; 180 s association and dissociation; 1:1 fit. To be noted: both partners purified.

Test [6] addresses T5, human ICOS-L ectodomain (residues 19-248), His-tagged, immobilised on Ni-NTA biosensors (human, UniProt O75144 19-248).
T5 construct: also called ICOS ligand; CD275; source: HEK 293F, transiently transfected, purified from the supernatant (HisTrap Ni-NTA); not shown: His6, C-terminal, kept
T5 sequence (looked up): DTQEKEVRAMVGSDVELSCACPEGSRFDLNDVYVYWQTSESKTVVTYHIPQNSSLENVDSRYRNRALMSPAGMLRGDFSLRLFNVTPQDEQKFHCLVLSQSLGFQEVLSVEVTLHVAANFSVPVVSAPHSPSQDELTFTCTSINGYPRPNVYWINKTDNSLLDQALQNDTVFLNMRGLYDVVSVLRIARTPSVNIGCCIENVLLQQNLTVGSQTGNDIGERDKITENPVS
In words: BLI; His-tagged ICOS-L on Ni-NTA biosensors (0.8 nm), untagged ICOS (wild-type and mutants) as analyte, 1:2 serial dilutions from 125 nM; PBS pH 7.4, 0.01% BSA, 0.002% Tween; 1:1 fit; apparent constant (avidity of the ICOS homodimer). The settings on record: both partners purified.

As usually defined, the koff is the rate constant with which the complex falls apart. A lower koff goes with slow dissociation.

B1: prezalumab Fab (purified, for BLI) (Fab, V domains shown)
VH: EVQLVESGGGLVQPGGSLRLSCAASGFTFSSYWMSWVRQAPGKGLEWVAYIKQDGNEKYYVDSVKGRFTISRDNAKNSLYLQMNSLRAEDTAVYYCAREGILWFGDLPTFWGQGTLVTVSS
VL: DIQMTQSPSSLSASVGDRVTITCRASQGISNWLAWYQQKPEKAPKSLIYAASSLQSGVPSRFSGSGSGTDFTLTISSLQPEDFATYYCQQYDSYPRTFGQGTKVEIK
notes: Fab heavy chain of prezalumab; Fab light chain of prezalumab; Purified on KappaSelect; also called humanized monoclonal anti ICOS-L antibody; source: HEK 293F, transiently co-transfected LC and HC, purified (KappaSelect, MonoS, Superdex 200)
As to B1, the binding result in test [1] is “binds”. For the same molecule, the Kd in test [2] stood at 5.5 nM. The same molecule registered an off-rate (koff) in test [3] of 0.0045 s⁻¹.

B2: prezalumab Fab (co-expressed with ICOS-L and VNAR, for the crystal structure) (Fab, V domains shown)
VH: EVQLVESGGGLVQPGGSLRLSCAASGFTFSSYWMSWVRQAPGKGLEWVAYIKQDGNEKYYVDSVKGRFTISRDNAKNSLYLQMNSLRAEDTAVYYCAREGILWFGDLPTFWGQGTLVTVSS
VL: DIQMTQSPSSLSASVGDRVTITCRASQGISNWLAWYQQKPEKAPKSLIYAASSLQSGVPSRFSGSGSGTDFTLTISSLQPEDFATYYCQQYDSYPRTFGQGTKVEIK
notes: as the heavy chain of m14; as the light chain of m14; source: HEK 293S (Gnt I-/-), co-transfected with ICOS-L and VNAR, complex purified
For the molecule B2, in test [4], the binding result is reported as “binds”.

B3: human ICOS ectodomain (residues 21-138), His-tagged, immobilised on Ni-NTA biosensors (receptor, UniProt Q9Y6W8 21-138, looked up)
chain: EINGSANYEMFIFHNGGVQILCKYPDIVQQFKMQLLKGGQILCDLTKTKGSGNTVSIKSLKFCHSQLSNNSVSFFLYNLDHSHANYYFCNLSIFDPPPFKVTLTGGYLHIYESQLCCQ
notes: human ICOS ectodomain, UniProtKB Q9Y6W8, residues 21-138, followed by a TEV cleavage site; The His6 tag of the vector lies C-terminal of TEV site and Venus, so the His-tagged form used for loading is probably the undigested ICOS-TEV-Venus-His6 fusion; also called inducible T-cell co-stimulator; CD278; source: HEK 293F, transiently transfected, purified from the supernatant (HisTrap Ni-NTA); not …
In test [5], B3 registered a Kd of 722 nM and a koff of 0.16 s⁻¹.

B4: human ICOS ectodomain (residues 21-138), untagged, disulfide-linked homodimer (receptor, UniProt Q9Y6W8 21-138, looked up)
chain: EINGSANYEMFIFHNGGVQILCKYPDIVQQFKMQLLKGGQILCDLTKTKGSGNTVSIKSLKFCHSQLSNNSVSFFLYNLDHSHANYYFCNLSIFDPPPFKVTLTGGYLHIYESQLCCQ
notes: human ICOS ectodomain, UniProtKB Q9Y6W8, residues 21-138; Residues of the TEV site probably remain at the C-terminus after cleavage; also called ICOS WT; ICOS disulfide-linked homodimers; source: HEK 293F, transiently transfected, purified (HisTrap Ni-NTA, TEV digestion, second Ni-NTA, Superdex 200); not shown: Venus (monomeric variant), C-terminal, cleaved; His6, C-terminal, cleaved
As for B4, the Kd in test [6] was 10 nM.

Values taken from publication PMC7545189, “Structural characterization of the ICOS/ICOS-L immune complex reveals high molecular mimicry by therapeutic antibodies” (Nature Communications, 2020).
